Laboratory results reported in patent US20240141042A1 (INNATE PHARMA, published 2024).

T1: NKp46 mutant 19 (human, UniProt O76036 22-304)
T1 construct: Expressed in transfected HEK293T cells
T1 chain: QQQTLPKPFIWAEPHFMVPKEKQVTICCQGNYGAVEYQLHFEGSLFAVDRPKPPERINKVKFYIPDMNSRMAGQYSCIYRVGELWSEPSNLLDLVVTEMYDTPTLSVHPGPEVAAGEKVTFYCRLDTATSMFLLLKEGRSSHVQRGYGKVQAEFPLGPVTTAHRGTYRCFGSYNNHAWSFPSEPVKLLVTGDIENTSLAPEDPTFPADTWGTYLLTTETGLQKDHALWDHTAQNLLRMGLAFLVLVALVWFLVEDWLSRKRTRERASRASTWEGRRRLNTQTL

T2: NKp46 mutant 2 (human, UniProt O76036 22-304)
T2 construct: Expressed in transfected HEK293T cells
T2 chain: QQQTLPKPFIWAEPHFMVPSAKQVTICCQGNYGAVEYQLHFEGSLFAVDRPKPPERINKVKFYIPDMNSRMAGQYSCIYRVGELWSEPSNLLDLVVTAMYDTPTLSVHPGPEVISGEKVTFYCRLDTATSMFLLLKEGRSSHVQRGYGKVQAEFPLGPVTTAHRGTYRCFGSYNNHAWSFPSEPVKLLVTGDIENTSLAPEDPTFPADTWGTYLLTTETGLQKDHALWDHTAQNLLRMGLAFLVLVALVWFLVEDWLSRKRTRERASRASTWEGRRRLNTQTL

T3: NKp46 mutant Supp7 (human, UniProt O76036 22-304)
T3 construct: Expressed in transfected HEK293T cells; also called supplementary mutant Supp7
T3 chain: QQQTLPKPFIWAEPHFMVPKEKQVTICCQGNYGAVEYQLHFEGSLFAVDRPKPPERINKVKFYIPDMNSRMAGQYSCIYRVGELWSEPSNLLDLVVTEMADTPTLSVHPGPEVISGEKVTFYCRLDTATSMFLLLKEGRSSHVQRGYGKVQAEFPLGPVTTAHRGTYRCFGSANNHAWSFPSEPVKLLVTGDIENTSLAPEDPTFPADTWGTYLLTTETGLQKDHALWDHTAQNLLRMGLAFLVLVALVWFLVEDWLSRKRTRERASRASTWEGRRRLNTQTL

T4: NKp46 mutant Supp8 (human, UniProt O76036 22-304)
T4 construct: Expressed in transfected HEK293T cells; also called supplementary mutant Supp8
T4 chain: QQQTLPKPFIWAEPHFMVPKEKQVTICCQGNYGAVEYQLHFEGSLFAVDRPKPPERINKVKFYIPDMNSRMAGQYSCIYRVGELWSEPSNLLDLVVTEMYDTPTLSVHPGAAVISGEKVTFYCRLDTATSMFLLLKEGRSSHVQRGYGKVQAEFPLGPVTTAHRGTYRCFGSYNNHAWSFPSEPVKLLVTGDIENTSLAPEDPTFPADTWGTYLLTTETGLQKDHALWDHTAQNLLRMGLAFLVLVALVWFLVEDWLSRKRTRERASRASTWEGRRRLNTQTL

T5: NKp46 mutant 6 (human, UniProt O76036 22-304)
T5 construct: Expressed in transfected HEK293T cells
T5 chain: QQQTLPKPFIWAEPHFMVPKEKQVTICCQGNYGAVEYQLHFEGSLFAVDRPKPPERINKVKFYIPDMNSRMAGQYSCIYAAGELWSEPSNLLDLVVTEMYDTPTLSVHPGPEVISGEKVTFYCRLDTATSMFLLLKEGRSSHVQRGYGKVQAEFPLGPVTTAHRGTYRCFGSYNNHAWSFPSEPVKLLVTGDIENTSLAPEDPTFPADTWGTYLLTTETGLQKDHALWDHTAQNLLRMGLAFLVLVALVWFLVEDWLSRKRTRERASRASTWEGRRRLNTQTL


Legend:
[1] = target: T6, human NKp46 expressed at the cell surface (human, UniProt O76036 22-304); experiment: flow cytometry on HEK293T cells transfected with wild-type NKp46, antibody titrated 0.001-1 ug/ml
T6 construct: Wild-type NKp46 on cells (transfected cell lines or NK cells); also called cell line expressing the human NKp46 construct; NKp46 cell line

NKp46 mutant 19 = target: T1, NKp46 mutant 19; experiment: flow cytometry on HEK293T cells transfected with NKp46 mutant 19 (I135A, S136A), antibody titrated 0.001-1 ug/ml
NKp46 mutant 2 = target: T2, NKp46 mutant 2; experiment: flow cytometry on HEK293T cells transfected with NKp46 mutant 2 (K41S, E42A, E119A), antibody titrated 0.001-1 ug/ml
Experimental: All the anti-NKp46 antibodies were tested for their binding to each mutant by flow cytometry. A first experiment was performed to determine antibodies that lose their binding to one or several mutants at one concentration (10 μg/ml).

NKp46 mutant Supp7 = target: T3, NKp46 mutant Supp7; experiment: flow cytometry on HEK293T cells transfected with NKp46 mutant Supp7 (Y121A, Y194A; printed 'Mutant S7'), antibody titrated 0.001-1 ug/ml
NKp46 mutant Supp8 = target: T4, NKp46 mutant Supp8; experiment: flow cytometry on HEK293T cells transfected with NKp46 mutant Supp8 (P132A, E133A; printed 'Mutant S8'), antibody titrated 0.001-1 ug/ml
human FcRn (Example 10) [2] = target: T7, human FcRn (Example 10) (human, UniProt P55899 24-297; P61769 21-119, limits assumed); experiment: SPR, FcRn immobilized on CM5, SCK/Two state reaction
T7 construct: Construct not described; Beta-2-microglobulin is not mentioned; also called recombinant FcRn proteins
Experimental: SPR measurements were performed on a Biacore T100 apparatus (Biacore GE Healthcare) at 25° C. In all Biacore experiments Acetate Buffer (50 mM Acetate pH5.6, 150 mM NaCl, 0.1% surfactant p20) and HBS-EP+ (Biacore GE Healthcare) served as running buffer and regeneration buffer respectively. Sensorgrams were analyzed with Biacore T100 Evaluation software. Recombinant mouse FcRn was purchase from R&D Systems.
(§1) Recombinant FcRn proteins were immobilized covalently to carboxyl groups in the dextran layer on a Sensor Chip CM5. The chip surface was activated with EDC/NHS (N-ethyl-N′-(3-dimethylaminopropyl) carbodiimidehydrochloride and N-hydroxysuccinimide (Biacore GE Healthcare)). FcRn proteins were diluted to 10 μg/ml in coupling buffer (10 mM acetate, pH 5.6) and injected until the appropriate immobilization level was reached (i.e. 2500 RU). Deactivation of the remaining activated groups was performed using 100 mM ethanolamine pH 8 (Biacore GE Healthcare).

[3] = target: T8, Human NKp46 recombinant proteins (human, UniProt O76036 22-258); experiment: SPR, bispecific captured on Protein-A chip, human NKp46 injected, 1:1 kinetic model
T8 construct: also called recombinant human NKp46 proteins
Experimental: SPR measurements were performed on a Biacore T100 apparatus (Biacore GE Healthcare) at 25° C. In all Biacore experiments HBS-EP+(Biacore GE Healthcare) and NaOH 10 mM served as running buffer and regeneration buffer respectively. Sensorgrams were analyzed with Biacore T100 Evaluation software. Protein-A was purchase from (GE Healthcare). Human NKp46 recombinant proteins were cloned, produced and purified at Innate Pharma.
as §1, with “Protein-A” for “Recombinant FcRn”, “Protein-A was” for “FcRn proteins were”, “2000” for “2500”
Monovalent affinity study was done following a regular Capture-Kinetic protocol recommended by the manufacturer (Biacore GE Healthcare kinetic wizard). Seven serial dilutions of human NKp46 recombinant proteins, ranging from 6.25 to 400 nM were sequentially injected over the captured Bi-Specific antibodies and allowed to dissociate for 10 min before regeneration. The entire sensorgram sets were fitted using the 1:1 kinetic binding model.

human FcRn (Example 10) [4] = target: T7, human FcRn (Example 10); experiment: SPR, FcRn immobilized on CM5, Steady State
[5] = target: T8, Human NKp46 recombinant proteins; experiment: SPR, antibody captured on Protein-A chip, human NKp46 injected, 1:1 kinetic model
NKp46 mutant 6 = target: T5, NKp46 mutant 6; experiment: flow cytometry on HEK293T cells transfected with NKp46 mutant 6 (R101A, V102A), antibody titrated 0.001-1 ug/ml

T7 sequence (P55899 24-297 limits assumed, form in doubt, chain 1 of 2): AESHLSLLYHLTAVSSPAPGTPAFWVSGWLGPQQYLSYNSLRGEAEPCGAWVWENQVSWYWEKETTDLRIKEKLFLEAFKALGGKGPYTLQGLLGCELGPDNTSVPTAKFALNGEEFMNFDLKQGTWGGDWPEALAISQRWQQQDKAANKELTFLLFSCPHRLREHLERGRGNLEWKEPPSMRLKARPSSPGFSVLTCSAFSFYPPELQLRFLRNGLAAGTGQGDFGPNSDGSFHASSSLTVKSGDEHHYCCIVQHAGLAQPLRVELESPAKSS
T7 sequence (P61769 21-119 limits assumed, form in doubt, chain 2 of 2): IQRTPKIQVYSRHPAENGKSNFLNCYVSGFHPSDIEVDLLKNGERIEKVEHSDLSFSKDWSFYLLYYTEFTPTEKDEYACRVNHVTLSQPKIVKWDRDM

Binder	binding result (NKp46 mutant 2)	binding result (NKp46 mutant Supp7)	Kd (human FcRn (Example 10) [2]) [nM]	Kd [3] [nM]	koff [3] [s⁻¹]	kon [3] [M⁻¹ s⁻¹]	also measured
NKp46-2 (antibody, human IgG1, V domains shown, also called parental human IgG1 chimeric antibody NKp46-2) VH: EVQLQESGPGLVKPSQSLSLTCTVTGYSITSDYAWNWIRQFPGNKLEWMGYITYSGSTSYNPSLESRISITRDTSTNQFFLQLNSVTTEDTATYYCARGGYYGSSWGVFAYWGQGTLVTVSA VL: DIQMTQSPASLSASVGETVTITCRVSENIYSYLAWYQQKQGKSPQLLVYNAKTLAEGVPSRFSGSGSGTQFSLKINSLQPEDFGSYYCQHHYGTPWTFGGGTKLEIK	binds	binds	–	–	–	–	binding result [1]: binds; binding result (NKp46 mutant 19): binds; binding result (NKp46 mutant Supp8): binds
CD19-F5-NKp46-3 (bispecific antibody, human IgG1, kappa, Heterotrimer with dimeric Fc: first (170), second (169) and third (171) chain) chain 1: not shown chain 2: not shown chain 3: DIVMTQSPATLSVTPGDRVSLSCRASQSISDYLHWYQQKSHESPRLLIKYASQSISGIPSRFSGSGSGSDFTLSINSVEPEDVGVYYCQNGHSFPLTFGAGTKLELKASTKGPSVFPLAPSSKSTSGGTAALGCLVKDYFPEPVTVSWNSGALTSGVHTFPAVLQSSGLYSLSSVVTVPSSSLGTQTYICNVNHKPSNTKVDKRVEPKSCDKTH	–	–	2.6	67	0.0051	75600	–
CD19-F11-NKp46-3 (bispecific antibody, Heterodimer; also called CD19-F11A-NKp46-3) chain 1: DIQLTQSPASLAVSLGQRATISCKASQSVDYDGDSYLNWYQQIPGQPPKLLIYDASNLVSGIPPRFSGSGSGTDFTLNIHPVEKVDAATYHCQQSTEDPWTFGGGTKLEIKGGGGSGGGGSGGGGSQVQLQQSGAELVRPGSSVKISCKASGYAFSSYWMNWVKQRPGQGLEWIGQIWPGDGDTNYNGKFKGKATLTADESSSTAYMQLSSLASEDSAVYFCARRETTTVGRYYYAMDYWGQGTTVTVSSGGGSSAPELLGGPSVFLFPPKPKDTLMISRTPEVTCVVVDVSHEDPEVKFNWYVDGVEVHNAKTKPREEQYSSTYRVVSVLTVLHQDWLNGKEYKCKVSNKALPAPIEKTISKAKGQPREPQVYTLPPSREEMTKNQVSLTCLVKGFYPSDIAVEWESNGQPENNYKTTPPVLDSDGSFFLYSKLTVDKSRWQQGNVFSCSVMHEALHNHYTQKSLSLSPGGGGGSGGGGSGGGGSGQPREPQVYTLPPSREEMTKNQVSLTCLVKGFYPSDIAVEWESNGQPENNYKTTPPVLDSDGSFFLYSKLTVDKSRWQQGNVFSCSVMHEALHNHYTQKSLSLSPGSTGSEVQLQQSGPELVKPGASVKISCKTSGYTFTEYTMHWVKQSHGKSLEWIGGISPNIGGTSYNQKFKGKATLTVDKSSSTAYMELRSLTSEDSAVYYCARRGGSFDYWGQGTTLTVSSRTVAAPSVFIFPPSDEQLKSGTASVVCLLNNFYPREAKVQWKVDNALQSGNSQESVTEQDSKDSTYSLSSTLTLSKADYEKHKVYACEVTHQGLSSPVTKSFNRGEC chain 2: DIVMTQSPATLSVTPGDRVSLSCRASQSISDYLHWYQQKSHESPRLLIKYASQSISGIPSRFSGSGSGSDFTLSINSVEPEDVGVYYCQNGHSFPLTFGAGTKLELKASTKGPSVFPLAPSSKSTSGGTAALGCLVKDYFPEPVTVSWNSGALTSGVHTFPAVLQSSGLYSLSSVVTVPSSSLGTQTYICNVNHKPSNTKVDKRVEPKSCDKTH	–	–	–	30	0.0104	339000	Kd (human FcRn (Example 10) [4]): 596 nM
CD19-F6-NKp46-3 (bispecific antibody, human IgG1, kappa, As F5 but with N297S: first (173), second (172) and third (174) chain) chain 1: not shown chain 2: not shown chain 3: DIVMTQSPATLSVTPGDRVSLSCRASQSISDYLHWYQQKSHESPRLLIKYASQSISGIPSRFSGSGSGSDFTLSINSVEPEDVGVYYCQNGHSFPLTFGAGTKLELKASTKGPSVFPLAPSSKSTSGGTAALGCLVKDYFPEPVTVSWNSGALTSGVHTFPAVLQSSGLYSLSSVVTVPSSSLGTQTYICNVNHKPSNTKVDKRVEPKSCDKTH	–	–	6	63	0.00503	79300	–
NKp46-3 IgG1 (antibody, V domains shown, Chimeric full-length human IgG1; also called NKp46-3 antibody as a full-length human IgG1) VH: EVQLQQSGPELVKPGASVKISCKTSGYTFTEYTMHWVKQSHGKSLEWIGGISPNIGGTSYNQKFKGKATLTVDKSSSTAYMELRSLTSEDSAVYYCARRGGSFDYWGQGTTLTVSS VL: DIVMTQSPATLSVTPGDRVSLSCRASQSISDYLHWYQQKSHESPRLLIKYASQSISGIPSRFSGSGSGSDFTLSINSVEPEDVGVYYCQNGHSFPLTFGAGTKLELK	binds	binds	–	–	–	–	Kd [5]: 20 nM; koff [5]: 0.00433 s⁻¹; kon [5]: 222000 M⁻¹ s⁻¹; binding result (NKp46 mutant 6): binds
